Experimental findings from patent publication US20240279345A1, “ALPHA 5 BETA 1 INTEGRIN BINDING AGENTS AND USES THEREOF” (PASITHEA THERAPEUTICS CORP., priority 2021, published 2024) are described below.

The target in this test is T1, recombinant human α5β1 integrin (rh-α5β1) (Homo sapiens, UniProt P05556+P08648).
T1 construct: purchased R&D Systems 3230-A5
Kind of test: Plate-based ELISA reactivity to rh-α5β1. Type of test: binding. Conditions: selected for further characterization among α5 specific hybridomas (28 selected). The method, then: The 249 positive hybridoma supernatants selected as described in Example 1 were screened for reactivity to rh-α5β1 in a plate-based ELISA. Immulon4 HBX ELISA 96-well plates (Thermo Fisher Scientific, Waltham, MA, cat. no. 3855) were coated with rh-α5β1 (R&D Systems, Minneapolis, MN 55413, cat. no. 3230-A5), at 1 μg/mL in PBS supplemented with 0.5 mM MgCl2, MnCl2 and CaCl2 and incubated overnight at 4° C. Plates were washed 3 times with Wash Buffer (1× Tris Buffered Saline containing 0.05% Tween20), blocked with 2% BSA in 1×TBS (made from 10× Thermo Scientific Blocker BSA (10×) in TBS; Thermo Fisher Scientific, Waltham, MA, cat. no. 37520) for 2 hours at room temperature (RT) then incubated with hybridoma supernatants diluted 1:10 with Standard Diluent (2% BSA, 1×TBS, 0.05% Tween20). Following a 1 hour incubation at RT, wells were washed 3 times, incubated with biotinylated goat anti-mouse secondary antibody at 1:8000 dilution (Invitrogen, Carlsbad, CA, cat. no. 62-6540) for 1 hour, washed 3 times, then incubated for 30 minutes with poly-HRP Streptavidin (Thermo Fisher Scientific, Waltham, MA, cat. no. N200), washed 4 times, incubated with TMB (Thermo Fisher Scientific, Waltham, MA, cat. no. N301) for 5-10 minutes, followed by addition of ELISA Stop Solution (Invitrogen, Carlsbad, CA, cat. no. SS04). Absorbance 450 nm was measured.
(In an ELISA, binding on a coated surface is turned into a signal by an enzyme label.)

T1 sequence (P08648 42-894 limits assumed): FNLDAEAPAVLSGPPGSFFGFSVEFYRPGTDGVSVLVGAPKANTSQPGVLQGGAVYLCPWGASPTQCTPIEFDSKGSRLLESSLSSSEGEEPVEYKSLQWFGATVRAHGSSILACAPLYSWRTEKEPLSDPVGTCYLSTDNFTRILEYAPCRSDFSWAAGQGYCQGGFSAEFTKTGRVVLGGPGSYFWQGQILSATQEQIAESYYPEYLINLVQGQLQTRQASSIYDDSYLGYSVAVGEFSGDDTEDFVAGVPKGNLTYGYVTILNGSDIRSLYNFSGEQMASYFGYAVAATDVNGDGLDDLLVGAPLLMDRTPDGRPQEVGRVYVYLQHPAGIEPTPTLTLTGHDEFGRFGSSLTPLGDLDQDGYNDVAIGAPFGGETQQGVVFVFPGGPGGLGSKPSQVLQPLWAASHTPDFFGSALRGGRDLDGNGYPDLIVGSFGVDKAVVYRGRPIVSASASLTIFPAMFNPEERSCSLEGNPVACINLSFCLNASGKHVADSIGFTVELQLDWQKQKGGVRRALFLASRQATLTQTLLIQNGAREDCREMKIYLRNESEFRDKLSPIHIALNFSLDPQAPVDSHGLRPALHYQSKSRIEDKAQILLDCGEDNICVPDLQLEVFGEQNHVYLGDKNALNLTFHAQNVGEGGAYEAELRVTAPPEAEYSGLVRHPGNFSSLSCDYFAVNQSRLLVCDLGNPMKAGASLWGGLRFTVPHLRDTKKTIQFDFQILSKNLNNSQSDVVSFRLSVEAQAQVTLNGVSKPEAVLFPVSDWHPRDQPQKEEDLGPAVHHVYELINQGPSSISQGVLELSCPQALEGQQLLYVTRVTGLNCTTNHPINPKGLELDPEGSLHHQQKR
T1 sequence (P08648 895-995 limits assumed): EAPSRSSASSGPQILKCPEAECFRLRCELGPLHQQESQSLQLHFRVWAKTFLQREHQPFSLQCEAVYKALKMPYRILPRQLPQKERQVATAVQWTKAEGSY
T1 sequence (P05556 21-728 limits assumed): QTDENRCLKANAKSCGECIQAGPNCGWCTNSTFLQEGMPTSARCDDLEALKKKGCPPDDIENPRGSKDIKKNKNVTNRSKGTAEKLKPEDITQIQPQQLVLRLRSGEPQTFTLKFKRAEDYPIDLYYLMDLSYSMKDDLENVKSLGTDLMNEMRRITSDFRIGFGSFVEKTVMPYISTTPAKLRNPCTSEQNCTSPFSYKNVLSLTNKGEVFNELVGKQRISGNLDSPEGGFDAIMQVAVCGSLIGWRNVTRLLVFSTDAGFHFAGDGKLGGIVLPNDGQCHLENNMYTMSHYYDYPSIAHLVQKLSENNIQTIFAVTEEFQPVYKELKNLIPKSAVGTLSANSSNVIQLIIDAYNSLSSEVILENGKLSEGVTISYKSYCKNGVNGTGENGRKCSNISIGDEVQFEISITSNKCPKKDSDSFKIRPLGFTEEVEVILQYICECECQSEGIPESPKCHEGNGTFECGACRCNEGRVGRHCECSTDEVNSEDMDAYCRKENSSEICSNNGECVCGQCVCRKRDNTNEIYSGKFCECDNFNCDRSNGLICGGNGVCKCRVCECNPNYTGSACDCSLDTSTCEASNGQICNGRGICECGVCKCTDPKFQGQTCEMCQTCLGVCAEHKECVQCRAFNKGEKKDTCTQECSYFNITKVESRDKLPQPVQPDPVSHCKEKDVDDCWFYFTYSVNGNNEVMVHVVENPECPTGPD

B1: A2-7A05: anti-α5β1 antibody, VH SEQ ID NO:77, VL SEQ ID NO:78; tested as mouse hybridoma antibody and as human IgG4 chimera (antibody, V domains shown)
VH: QVQLQQPGAELVKPGASVKLSCKASGYTFTIYWINWVKQRPGQGLEWIGKIYPGSISTDYNEKFKSKATLTVDTSSSTAYMQLSSLTSDDSAVYYCAITGTGGLAYWGQGTLVTVSA
VL: ENVLTQSPAIMSASLGEKVTMTCRASSSVNYMYWYQQKSDASPKLWIYFTSSLAPGVPGRFSGSGSGNSYSLTISTMEGEDAATYYCQQFTTSPFTFGSGTKLEIK
modifications: A2-7A05 VH Sequence; A2-7A05 VL Sequence
notes: tested as mouse hybridoma antibody and as human IgG4 chimera
Consider B1, for which the “Selected Human α5 Specific” value was “Yes”.
